The values below come from patent US20180134756A1 (NATIONAL INSTITUTE OF ADVANCED INDUSTRIAL SCIENCE AND …, published 2018).

The target in this experiment is T1, Aleuria Aurantia Lectin (AAL) (Aleuria aurantia, UniProt P18891 2-313).
T1 construct: Used as the probe in lectin blotting
T1 sequence (looked up): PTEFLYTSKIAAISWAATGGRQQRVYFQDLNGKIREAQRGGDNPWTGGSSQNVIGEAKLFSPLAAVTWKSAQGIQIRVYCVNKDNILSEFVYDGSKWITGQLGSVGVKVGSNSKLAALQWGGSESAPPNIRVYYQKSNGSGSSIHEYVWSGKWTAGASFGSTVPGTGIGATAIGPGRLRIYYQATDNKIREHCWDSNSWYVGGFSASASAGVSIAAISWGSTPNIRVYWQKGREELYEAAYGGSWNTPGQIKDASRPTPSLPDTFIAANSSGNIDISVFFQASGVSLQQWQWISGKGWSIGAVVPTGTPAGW
The experiment can be described thus: lectin blotting. The method, then:
It was reported that the natural WFA (nWFA) has a sugar chain including fucose, and thus, the lectin blotting was performed using Aleuria Aurantia Lectin (AAL) recognizing fucose. As a result, it was confirmed that the nWFA was a glycoprotein including a sugar chain that reacted to AAL (FIGS. 5A and 5B).

B1: natural Wisteria floribunda lectin (nWFA), purified, purchased from Vector Lab (other)
chain: KETTSFVFTRFSPDPQNLLLQGDTVVTSSGHLQLTQVKDGEPVYSSLGRALYYAPIHIWDSNTDTVANFVTSFSFVIDAPNKAKAADGLAFFLAPVDTEPQKPGGLLGLFHDDRHNKSNHIVAVEFDTFKNSWDPEGTHIGINVNSIVSRKTTSWDLENGEVANVVISYQASTKTLTASLVYPSSSTSYILNDVVDLKQILPEYVRVGFTAASGLSKDHVETHDVLAWTFDSDLPDPSSDDCN
modifications: one N-glycan (fucose-containing) expected at Asn146; disulfide bond between the two Cys272
notes: Lectin purified from seeds; Disulfide-linked dimer of about 60 KDa; also called natural WFA; nature-derived WFA
In the case of B1, the binding result is listed as “binds”.
